Tests used:
VPS29–VPS35C subcomplex = VPS29–VPS35C subcomplex (UniProt Q96QK1;Q9UBQ0); assay: crystal structure
[1] = molecular target: VPS29 (as expressed for the complexes, pMR101A‐VPS29) (UniProt Q9UBQ0); assay: crystal structure

binding result (VPS29–VPS35C subcomplex): binds
binding result [1]: binds
B1: peptide FAM21‐R21 (1328-SNIFDDPLNAFGGQ-1341) (peptide)
peptide: SNIFDDPLNAFGGQ

Source: article PMC11010949 (Protein Science : A Publication of the Protein Society, 2024)
